Data from the DeepSol protein solubility set.

Test: soluble on expression in E. coli; label from the status in PepcDB or PDB records

| Sequence | soluble on expression in E. coli |
| --- | --- |
| MLERILSRENLIQALERVEKNKGSYGVDEMDVKSLRLHLHENWTSIRNEIIEGSYFPKPVRRVEIPKPNGGVRKLGIPTVMDRFLQQAIAQILTQLYDPTFSERSFGFRPHRRGHNAVRQAKQWMKEGYRWVVDIDLEKFFDKVNHDRLMRKLSSRIQDPRVLQLIRRYLQTGVMERGLVSPNTEGTPQGGPLSPLLSNIVLDELDNELEKRGLKFVRYADDCNIYVRSKRAGLRIMESVTSFIENRLKLKVNREKSAVDRPWNRKFLGFSFTRGKDPKMRVSKESVKRLKQRIRELTSRRHSMKMSDRLRRLNRYLTGWLGYYQLVDTPSILAQIDAWIRRRLRMIRWKEWKTTSARQKNLVRLGIKKAKAWQWANSRKGYWRVAHSPIMDYALNSEYWKGQGLMSLAERYQTRRWTLEHHHHHH | not soluble |
| MISSNSSSTSLNVETDYPTNGKKPLKEGSVQLTSLSTLLSHHRYFFLYHETLIISKQKGACSYKLKEKLRLEKVWIASSNTADSFLIGWPFTNYLVHFRNTEEKDEWFELLSCCVQQCLRPLFTTISMEINVRGRKQTIRRRVDNGKKSGEIVVDTAGDLGLPHTSYQLTLSFGDNSHRQLQGPENVYVAIMSEIERQGTRLSESQKQALDTCPIANCRLILSTIKSTSGPSAKQLVNSIKKKVLTRTDSRSIFGKGLNGPTPPQPIMTIVDHLRMDGFDAEGIFRKSPKQSTFKELKCELDKGVVPDFHKYNTHVLASILKEYLRSIPGKILLSGNYELWMREIADEPNTEKKVSCCRALLSHLPTSHSILLANVLKLLNKISNSPSSKMNASSLSVCLAPSFLESPDPMEGGKKIPPLIEFLISHAAQVMPGFSTDNVFAIMTSPMVDHNANMVCSPAPSSSHSDDGGSSQKTPIIEELNDADDATSQSSLAESDLPDEPRGTSAHLETISEISEPPTNDERLVFSSSEDEDDDDEDELRVYRPKSSTSTSSCFARTSFVSETLKTSADDGDKGLNKETPRSPCLKRIHFQRTEAQHRNKEGNIKLDFEALKFHRPSVRKSSLEEVARKNSAEFFHHSREPSDAAVTPTPPKNGSTMRKESREEATQTADCGLPHISSNDDSDSRFPAFKSSSVAMLTEPYKSSSSSSSSTSSIPSDPAPRPYFLKEEYTSLANKPTVQVAPFSQEPSLKTINDRLNALRQNSILAQEVPQEPVMTSSRLRSEATKSLTNSPIMPRSYGGSLMQKDREEHSFVADDFYKASSRKPELQRSSSQRGLTSMNNNNNSTKQIYGARPSSLKTPRRFAGAGGVEACVGMDPLEINWSVSQLKTLFQDTKAPSIDTTYNMN | not soluble |
| MGSDKIHHHHHHMSRLLRSPQTGAGKLFSAASSENFSKQNLIDAVIKEARRKVMEAEFQKKFMQSWSRYFPGAELPIGFYYTDSAETKFMAKPPKRHRCIIGDLAKVRKGKPQCFDNNAIGCFGGKRYLGFESKLTPDFEYFLSCGIPGKIEGERYKKSPELVKEHLKHQQPLKAPGNYIIFKRWDQMENADIPSVVIFFAAPDVLSGLFTLANFDETHPHGVIAPFGAGCASIVDYPYKELNSPDPRSVLGMFDVSARPCVPSNVLTFAVPWPKFVRMVGNMDESFLITRSWNKVKTRIKKEHAKSNDK | not soluble |
| MHHHHHHSSGVDLGTENLYFQSNAMLDPLDILTNIDDVLPYYQAIFSAEEQKVVGYEVLGRILADSEIQSLGPFFLDAGIPEEYKLEVDNRIIRQALDRFLEADSDLLIFMNQDANLLMLDHGESFLELLKEYEAKGIELHRFVLEITEHNFEGDIEQLYHMLAYYRTYGIKIAVDNIGKESSNLDRIALLSPDLLKIDLQALKVSQPSPSYEHVLYSISLLARKIGAALLYEDIEANFQLQYAWRNGGRYFQGYYLVSPSETFLERDVLKQRLKTEFHQFITHEKKKLETVYEHSEQFYKRVHQAVTSLRKNNLSSDDDFIKKLAEELTDCSFRIYMCDEEGDQLTGNVFKQDGEWIYQPEYAEKNWSWRPYFLENIMRMRNLRKGFFSDLYSDLETGEMIRTFSYPMDDQMYLFIDLPYSYLYEQDGLI | soluble |
| GTQSTHESLKPQRVQFQSRNFHNILQWQPGRALTGNSSVYFVQYKIYGQRQWKNKEDCWGTQELSCDLTSETSDIQEPYYGRVRAASAGSYSEWSMTPRFTPWWETKIDPPVMNITQVNGSLLVILHAPNLPYRYQKEKNVSIEDYYELLYRVFIINNSLEKEQKVYEGAHRAVEIEALTPHSSYCVVAEIYQPMLDRRSQRSEERCVEIP | soluble |
| GSQNNECKMVDLRGAKVASFTVEGCELICLPQAFDLFLKHLVGGLHTVYTKLKRLEITPVVCNVEQVRILRGLGAIQPGVNRCKLISRKDFETLYNDCTNA | soluble |
| MNDEIKVSVLIITYNQARFIKKAIESALEQKTKFKYEIIVMDDCSSDSTIKIAGKYAEKYTDIIKVYSNNKNLGITKNYKEGFKKCRGEYIAVLEGDDYWNNKQKLQIQSNFLDRHKNFSAVFNRYIIYNAINNSKATQAWRSNTSYETITIEQLTRGNVIGNFSTCMYRKSCVDKVKESLYDMLVYDWMFNMVIAEQKPIAYLPQICSVYRIHSRGTWMGNSVKNRLALTIKLIDVYNAFFGFKYNSNFKLLKKNVYKQLINLEHHHHHH | soluble |
| MAHHHHHHMGTLEAQTQGPGSMKQAYDNNNIFAKLIRNEIPSVRVYEDDDVIAFMDIMPQAPGHTLVIPKKGSRNLLDADTETLFPVIKAVQKIAKAVKKAFQADGITVMQFNEAASQQTVYHLHFHIIPRMEGIELTPHNNIITPTEILEENAKKIRAAL | soluble |
| DQESCKGRCTEGFNVDKKCQCDELCSYYQSCCTDYTAECKPQVTRGDVFTM | soluble |
| MARSLVFIAIALIAVVSAGPGDKDQPKPDHKKGPGGFHHFFPKFFGNVSEEGKKEIGALFKNQDLTLAEVDTKIAALAEKYGVAAAYKEHKAKEATNEAEAKKKTASVISNLSAVSAKLTAIHDNKSLTRKAQREAIAALRKEHEAEVAALDFIGKRSHGFGKHHGRHGKGNGKFFGKRGGNKMERKTAAQ | not soluble |
| MSYDTDPFRGEFDSLEEFADRVSDVLKCPVTIEDANHRLIAYSAHDDYTDPARTATIISRRVPEKVINSLWKQGAIPALLKSREPVRVPPIHDVGLGSRVAVSIWKNDEVIGFIWVLETNRTLSPEEMEWLKLAAKAAKNKVLQLYMRKNKKEERVQELFWKLLTGHIAREDDIRAHLAAMQIPTAPQFAVVVFRFAADLTAEMERQISYLLQTTQQLPLLLYTTDGRDVILLAAPKTDQPLKELNAFIESFAAKMKERFHIHDVQCGFGGVYGIYRLIEKSYREALAVLALKEKLGDEIKSVYGYAQLGIYQFFDLLLEQKRQGEWTNPALTKLQSYDQKHHSDLVKTFETFFDHNENAQETADVLNVHPNTLAYRLKRIADIAELDLNDMNQKIKLYIDIKLAKYEARG | not soluble |
| MDSSQVPNPVLVLVGSPRRDGNSALLAQAVAEGARQSGAAATLLFLDDYIAGFLTDEKEADARRPDDRYGELFFDHFLPARAVVLCTPVYWYGMSAQAKAFFDRSFTYYSASHPRHAEVLRRMTGKRLALAVSSEETYPGAALGIVHQLQEFTRYTHSQFVGMVHGAGNRRGEVAHDPRRPLQAAHRLGHDLLSLPYSDYRIDSPRDHQVWPGAPA | not soluble |
| MRQRSSYPKPFKAQVVQECLQPGATVSSVAINHGINANVIRKWLPLYRDLPAAASLPAFVPLKAAPKRPVEASVIIELPVAGQVITVKWPASDPEGCAQFIRAFAQLEHHHHHH | not soluble |
| MGEPVILEAVRTPIGKRNGALRAYRPDALYAKVLDALLERTGIDPGLIGDVVTGCVTQVGEQGANVGRLGVLLSRLPKEVPAVSLNRMCGSSQQAVHFAAQAIAAGDVDFAIAGGVESMTRVPMFADIGGGFHTLNPELGKRYELVHQGESAERIAERYGFCREELDEWGYLSHKRAARATEEGRFSAQILPLEGLDAEGRPFLLTRDEGVRPDVDYEKMLALKPVFREDGVVTAGNSSQISDGAAALLLGDREKALALGLRPRARFLARVVVAGDPTLQLLEVIPAAKKALERAGLSLRDVDVIEVNEAFASVVLAFLRELGADPEKVNPNGGAIAHGHPLGATGAVLMTKLLYELERTGSEFGLQVMCIGHGQATATVIQRL | soluble |
| MEHREALIALRTFLSTQILGQEKLIERLLIALLADGHMLVEGAPGLAKTKAIKELAEGIEAQFHRIQFTPDLLPADITGTEIYRPETGSFVFQQGPIFHNLVLADEINRAPAKVQSALLEAMAERQVSVGRSTYDLSPLFLVMATQNPIEQEGTYPLPEAQLDRFLMHVKIGFPDAAVERKILQQARGEALNGETKPERRVSQQAIFAARKEILGLYMADAVEEYLVQLVMATRTPAKFDPELAEWIAYGASPRGSISLDRCARAHAWLAGRDFVSPEDIQAVLFDVLRHRIILSFEAEAAGIDQDRVIQRILDVVAVALEHHHHHH | soluble |
| MNRYRKILVAGIIDQEEQPALKRALDIANRTTKPSEITLFCTTYDFSYEMTSMLSADERMAMRNGVVSQKVKMLNDVIADYSKSDHVTITIKVVWHNRPYEAIINEIFDDSYNILIKATRQHAKLETVFFTPTDWHLLRKSPIPVLLVKERPWPENGNILASVHVGSENPAHLQLNDKMVDEAIYFAEVLNSTPHLVNAYPSTPPSIHVELPEFNAVQYKDAIRGHHLTQMKALRQKYGIPEEQTHVYEGPTEEVISEVEDELTAGLVILGTTGRTGLSAIFIGNTAENTLDLLNCDILALKPDGYISPLDPNHIS | not soluble |
| MGSDKIHHHHHHMNRLRTSFQQTTGQISGHGKRNVGVLKTAFAAVADEMASDQYGTGAIIEPFEQKFADVLGMDDAVFFPSGTMAQQVALRIWSDETDNRTVAYHPLCHLEIHEQDGLKELHPIETILVGAADRLMTLDEIKALPDIACLLLELPQREIGGVAPAFSELETISRYCRERGIRLHLDGARLFEMLPYYEKTAAEIAGLFDSIYISFYKGLGGIAGAILAGPAAFCQTARIWKRRYGGDLISLYPYIVSADYYYELRKDRMGQYYEQAKQLAEQFNALPGVHTTPEVPVSNMFHLHFDGQAADISPKLEQVQEETGLGFVGYLVDKDGYCSTEISVGDAYGELDQQTRDAGFARLRQAFS | not soluble |
| MAELKDQLSLLGRKTEYKQDYAPEVLEAFDNKHPENDYWVRFNCPEFTSLCPITGQPDFAEIRISYIPDIKMVESKSLKLYLFSFRNHGAFHEDCVNIIMKDLIKLMNPKYIEVTGIFTPRGGISIYPYANYGRPGTKFEQMAEHRLMNRE | not soluble |
| MGHHHHHHSHMAQSINITELNLPQLEMLKNQLDQEVEFLSTSIAQLKVVQTKYVEAKDCLNVLNKSNEGKELLVPLTSSMYVPGKLHDVEHVLIDVGTGYYVEKTAEDAKDFFKRKIDFLTKQMEKIQPALQEKHAMKQAVMEMMSQKIQQLTALGAAQATAKA | not soluble |
| MGSDKIHHHHHHMDGRGLKAYATPIRKFWVVLLQQRRMAMAENEKYLDWAREVLHTEAEGLREIAAELDENFVLAADALLHCKGRVVITGMGKSGHIGRKMAATMASTGTPAFFVHPAEAAHGDLGMIVDNDVVAAISNSGESDEITAIIPALKRKDITLVCITARPDSTMARHADIHITASVSQEACPLGLAPTTSTTAVMALGDALAVVLLRARAFTPDDFALIHPAGSLGKRLLLRVADIMHKGGGLPAVRLGTPLKGAIVSMSEKGLGMLAVTDGQGCLKGVFTDGDLRRLFQECDNFTGLSIDEVMHTHPKTISAERLATEALKVMQANHVNGLLVTDADGVLTGALNMHDLLAARIV | not soluble |
| MAHHHHHHMYTHTHTHTHTHTCTHMYLSSTLHRVFSPLVASPPQKEVGSKSNARGGKRVWRKGLASWEPQAGTHAHAHAQTDAEGYLQRTRRKPRPPAHASSLSPPLLLGRSRMGYTRERTNRHFFVSRANAFFSRLPISRIQRALAMEAIKKGSMKPWKHTKEQIIGSPITCNFEYNPRPVRLIGTVMDAHTEETSIKGGLKVYARSEEANMMLWIPAGNPKLKYEVTAAKGSFEHYLDERSKWDEAWLTGRARMK | soluble |
